Test: Unfolding of apoA-I by guanidine hydrochloride
Format: physicochemical
Procedure: FIG. 4. Unfolding of apoA-I in spherical (POPC)rHDL, (PLPC)rHDL, (PAPC)rHDL and (PDPC)rHDL. (POPC)rHDL, (PLPC)rHDL, (PAPC)rHDL, (PDPC)rHDL and lipid-free apoA-I were incubated with 0-8 M GdnHCl for 0 (◯), 5 ( ), and 24 (●) h. Values represent the mean of at least three determinations. Experimental errors for the wavelength of maximum fluorescence are ±1.0 nm.
FIG. 5. Kinetics of the unfolding of apoA-I in spherical (POPC)rHDL, (PLPC)rHDL, (PAPC)rHDL and (PDPC)rHDL. Spherical (POPC)rHDL ( ), (PLPC)rHDL ( ), (PAPC)rHDL (●), (PDPC)rHDL ( ) and lipid-free apoA-I (◯) were incubated with 3.5 M GdnHCl for 0-24 h. The wavelengths of maximum fluorescence represent the mean±sd of triplicate determinations.
The unfolding of apoA-I was determined by incubating the rHDL preparations at 25° C. for 0-24 h in the presence of 0-8.0 M guanidine hydrochloride (11).

lipid-free apoA-I: Apolipoprotein A-I purified from delipidated HDL of pooled human plasma, used as lipid-free comparator
rate of unfolding of apoA-I (3.5 M GdnHCl, 0-24 h): unfolded rapidly and completely
concentration of GdnHCl required to achieve 50% unfolding of apoA-I (25° C.): 1.0 M

From patent US20040266662A1, “Spheroidal hdl particles with a defined phospholipid composition” (priority 2001, published 2004)
